In publication PMC12578645:

Target: gB-Ecto.H516P (HSV-1 glycoprotein B ectodomain with H516P and an appended foldon; postfusion) (HSV-1 KOS strain) (UniProt P06437)
Experiment: cryo-EM structure

Question: With “gB-Ecto.H516P (HSV-1 glycoprotein B ectodomain with H516P and an appended foldon; postfusion) (from UniProt P06437 31-728) (domain or fragment)” as the substance, how does the stoichiometry N read?
Answer: 3
